In series [1] the target is TnpA^IS1535, full length, wild type (Mycobacterium tuberculosis). Description: native gel or EMSA; TnpA (32 nM) and TnpA-MBP (8 to 256 nM), alone or mixed, incubated with the IS1535 LEΔ54 DNA probe, which gives only complex I; oligomer bound to DNA judged from the absence of a band of intermediate mobility. In general terms: In EMSA bound probe runs differently from free probe, usually more slowly.

The subject of series [2] is TnpA IS1535 (WT) (Mycobacterium tuberculosis). Description: EMSA.
Series [3] has as its system T1, TnpA IS1535 (WT) (Mycobacterium tuberculosis), ORF:81838cbf.
T1 sequence: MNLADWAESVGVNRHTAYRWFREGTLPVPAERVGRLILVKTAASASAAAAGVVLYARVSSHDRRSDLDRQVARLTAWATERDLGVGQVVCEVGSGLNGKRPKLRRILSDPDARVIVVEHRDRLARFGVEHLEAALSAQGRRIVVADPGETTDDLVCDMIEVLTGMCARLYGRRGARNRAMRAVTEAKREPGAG
Description: EMSA.

For series [4], the target named is TnpA^ISC1926 C-terminal domain (CTD), residues 65-221 (Sulfolobus islandicus). Description: crystal structure; TnpA^ISC1926 CTD (65-221), hanging drop, 20 mM MOPS pH 7.0, 100 mM Na-acetate, 0.1 mM DTT mixed with 8% tacsimate pH 4.0, 20% PEG3350, 25°C; 2.9 Å; two dimers in the asymmetric unit.

In series [1], “TnpA^IS1535, full length, wild type (enzyme)” yielded a stoichiometry N of 2.
IS1535 RE 139 bp registered a binding signal in series [2] (scale: % of probe as PEC) of 3.
In series [3], “AAAAAGAATTCCGACTCCGCCCAATCCGCCAGATTCACGCCGCCAATTAGAACACACTAACGCACACTAAAACACACTCAACACGCAACAGCTCTGAACCCCAGAGCGTTGGCCGACAAGCGCCCACCACACACGGACGTCTTTTT (double strand) [IS1535 LE 149 bp]” showed a K half of less than 10 nM.
In series [2], IS1535 LE 149 bp returned a K half of less than 10 nM.
In series [4], “TnpA^ISC1926 C-terminal domain (CTD), residues 65-221 (domain or fragment)” returned a stoichiometry N of 2.

As usually defined, the stoichiometry N is the number of molecules, sites or subunits per partner or assembly.
